This note sets out measurements from article PMC12607630, “ZapC crosslinks FtsZ filaments through a dual-binding mechanism modulated by the intrinsically disordered linker of FtsZ in Escherichia coli” (mBio, 2025).

Test in all cases: BLI; 6×His-ZapC or its mutants (0.5 µM) loaded on Ni-NTA biosensors, untagged FtsZ or its variants in solution; Octet-Red96, 30°C, 1× Pol buffer (50 mM HEPES-NaOH pH 6.8, 50 mM KCl, 10 mM MgCl2); apparent Kd from the signal at the end of association against concentration, one-site fit; three repeats with mean (X) and SD
Common to all, as to conditions: both partners purified

One assay concerns the target T1, FtsZ 1-316 (untagged) (Escherichia coli, UniProt P0A9A6 1-316).
T1 construct: lacks the entire CTL and the CTP; source: E. coli BL21(DE3), plasmid pLY343, purified (Ni-NTA); 6×His-SUMO tag removed with Ulp1; not shown: 6×His-SUMO, N-terminal, cleaved
T1 sequence (looked up): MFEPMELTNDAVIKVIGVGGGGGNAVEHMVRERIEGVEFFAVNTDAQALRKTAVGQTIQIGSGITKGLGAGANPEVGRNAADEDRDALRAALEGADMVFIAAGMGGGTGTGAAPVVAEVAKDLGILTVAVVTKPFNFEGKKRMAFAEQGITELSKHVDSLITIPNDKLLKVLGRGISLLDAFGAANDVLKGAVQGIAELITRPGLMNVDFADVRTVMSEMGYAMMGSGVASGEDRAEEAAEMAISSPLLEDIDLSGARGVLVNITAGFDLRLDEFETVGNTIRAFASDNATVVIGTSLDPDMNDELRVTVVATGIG

Another assay has as its target T2, FtsZ 1-370 (untagged) (Escherichia coli, UniProt P0A9A6 1-370).
T2 construct: FtsZ of Escherichia coli, residues 1-370; lacks the CTP; Primers BsaI-out-F and 370XbaI-out-R; forward primer starts at codon 2; source: E. coli BL21(DE3), plasmid pLY341, purified (Ni-NTA); 6×His-SUMO tag removed with Ulp1; not shown: 6×His-SUMO, N-terminal, cleaved
T2 sequence (looked up): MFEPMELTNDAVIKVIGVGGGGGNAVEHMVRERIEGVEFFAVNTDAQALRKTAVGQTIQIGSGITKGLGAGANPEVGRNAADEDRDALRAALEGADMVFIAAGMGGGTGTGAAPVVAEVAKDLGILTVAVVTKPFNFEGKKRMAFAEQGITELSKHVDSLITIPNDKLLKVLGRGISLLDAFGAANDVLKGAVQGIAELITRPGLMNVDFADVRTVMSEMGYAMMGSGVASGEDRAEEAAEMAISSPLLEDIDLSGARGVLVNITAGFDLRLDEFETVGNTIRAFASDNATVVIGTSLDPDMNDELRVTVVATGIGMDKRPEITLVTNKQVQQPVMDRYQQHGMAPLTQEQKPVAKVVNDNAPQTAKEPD

The target of a further assay is T3, FtsZ I323L (untagged) (Escherichia coli, UniProt P0A9A6 1-383, I323L).
T3 construct: FtsZ of Escherichia coli with I323L (CTL); Derivative of pLY17 by site-directed mutagenesis; source: E. coli BL21(DE3), plasmid pLY20, purified (Ni-NTA); 6×His-SUMO tag removed with Ulp1; not shown: 6×His-SUMO, N-terminal, cleaved
T3 sequence (looked up): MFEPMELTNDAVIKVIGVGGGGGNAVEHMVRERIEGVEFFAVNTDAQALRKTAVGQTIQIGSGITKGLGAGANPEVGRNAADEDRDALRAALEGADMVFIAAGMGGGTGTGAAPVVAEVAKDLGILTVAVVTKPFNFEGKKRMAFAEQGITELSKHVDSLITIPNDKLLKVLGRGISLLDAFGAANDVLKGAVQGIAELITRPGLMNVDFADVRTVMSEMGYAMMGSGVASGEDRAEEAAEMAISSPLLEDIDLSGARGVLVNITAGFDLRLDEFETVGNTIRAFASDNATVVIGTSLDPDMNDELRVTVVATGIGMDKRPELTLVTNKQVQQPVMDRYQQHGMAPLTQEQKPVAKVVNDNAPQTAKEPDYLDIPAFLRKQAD

The target of a further assay is T4, FtsZ 1-330 (untagged) (Escherichia coli, UniProt P0A9A6 1-330).
T4 construct: FtsZ of Escherichia coli, residues 1-330; lacks most of the CTL and the CTP; Primers BsaI-out-F and 330XbaI-out-R; forward primer starts at codon 2; source: E. coli BL21(DE3), plasmid pLY340, purified (Ni-NTA); 6×His-SUMO tag removed with Ulp1; not shown: 6×His-SUMO, N-terminal, cleaved
T4 sequence (looked up): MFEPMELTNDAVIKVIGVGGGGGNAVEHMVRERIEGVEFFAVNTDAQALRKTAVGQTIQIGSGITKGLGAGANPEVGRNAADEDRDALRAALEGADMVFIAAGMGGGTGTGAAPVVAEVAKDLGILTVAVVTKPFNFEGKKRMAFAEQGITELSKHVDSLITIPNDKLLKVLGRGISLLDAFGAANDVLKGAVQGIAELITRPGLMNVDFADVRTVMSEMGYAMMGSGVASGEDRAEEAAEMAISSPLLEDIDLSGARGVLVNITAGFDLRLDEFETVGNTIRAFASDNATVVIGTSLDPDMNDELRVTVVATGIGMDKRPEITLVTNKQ

“And” between values parts separate entries of the source, which are not always exact repeats. Equal values may be shown once.

B1: 6×His-ZapC (natural protein)
chain: not shown
notes: ZapC, FtsZ-associated protein of Escherichia coli; Construction of pSD323 is not described; also called His-tagged ZapC; source: E. coli, plasmid pSD323 (pQE80, Plac::6×His-ZapC), purified (Ni-NTA); not shown: His6, N-terminal, kept
For the molecule B1, the Kd with FtsZ 1-316 (untagged) was 1.54 µM and 1.91 µM and 1.29 µM and 1.58 µM; with FtsZ 1-370 (untagged) it was 1.54 µM and 1.19 µM and 1.26 µM and 1.33 µM; in the assay with FtsZ I323L (untagged), 0.647 µM and 0.635 µM and 0.62 µM and 0.579 µM; in the assay with FtsZ 1-330 (untagged), 1.61 µM and 1.81 µM and 1.59 µM and 1.67 µM.
